Measured values as given in US20050229275A1.

Experiments:
[1] = biological target: murine mAbGA733; assay: competition ELISA: free GA733 (1-100 nM) varied, constant murine mAbGA733 (0.063 nM), plates coated with GA733
[2] = biological target: plant produced CO17-1A of Example 9; assay: competition ELISA: free GA733 (1-100 nM) varied, constant plant CO17 (1/500 dilution; protein A purified and ammonium sulfate fractionated preparations alike), plates coated with GA733
[3] = biological target: murine mAbGA733; assay: competition ELISA, free GA733 against coated GA733
[4] = biological target: colorectal cancer-associated antigen (Ag) GA733-2 (UniProt P16422); assay: ELISA, leaf extract on plates coated with Ag GA733-2, anti-mouse IgG peroxidase (whole molecule)
[5] = biological target: colorectal cancer-associated antigen (Ag) GA733-2 (UniProt P16422); assay: ELISA, N. benthamiana leaf extract on plates coated with Ag GA733-2, anti-mouse IgG peroxidase (whole molecule or Fc specific)

colorectal cancer-associated antigen (Ag) GA733-2 (from UniProt P16422 24-265)
IC50 [1]: 35 nM | IC50 [2]: 6.3 nM | fold higher antigen concentration for 50% inhibition, against plant expressed CO17-1A [3]: 5 fold

B1: plant-produced rAB CO17-1A expressed from AlMV vectors A3a17-1ALC and A3b17-1AHC in Rep plants (antibody, INN chains, looked up, V domains shown)
VH: QVQLQQSGAELVRPGTSVKVSCKASGYAFTNYLIEWVKQRPGQGLEWIGVINPGSGGTNYNEKFKGKATLTADKSSSTAYMQLSSLTSDDSAVYFCARDGPWFAYWGQGTLVTVSA
VL: NIVMTQSPKSMSMSVGERVTLTCKASENVVTYVSWYQQKPEQSPKLLIYGASNRYTGVPDRFTGSGSATDFTLTISSVQAEDLADYHCGQGYSYPYTFGGGTKLEIK
modifications: plant-produced
fold OD490 nm over controls (NI, HC, LC) [4]: 2 to 3 fold

B2: plant-produced rAb CO17-1A expressed from TMV vectors 30B-17HCK and 30B-17LC in Nicotiana benthamiana (antibody, INN chains, looked up, V domains shown, part only)
VH: QVQLQQSGAELVRPGTSVKVSCKASGYAFTNYLIEWVKQRPGQGLEWIGVINPGSGGTNYNEKFKGKATLTADKSSSTAYMQLSSLTSDDSAVYFCARDGPWFAYWGQGTLVTVSA
VL: NIVMTQSPKSMSMSVGERVTLTCKASENVVTYVSWYQQKPEQSPKLLIYGASNRYTGVPDRFTGSGSATDFTLTISSVQAEDLADYHCGQGYSYPYTFGGGTKLEIK
modifications: plant-produced, His tag
fold O.D.490 over controls (NI, HC, LC) [5]: 2 to 3 fold
